Key:
Assay in all cases: cell-based or functional assay
[1] = molecular target: Env of HIV isolate 00836-2.5 (clade C) (HIV)
[2] = molecular target: Env of HIV isolate 0439.v5.c1 (clade A) (HIV)
[3] = molecular target: Env of HIV isolate 16055-2.3 (clade C) (HIV)
[4] = molecular target: Env of HIV isolate 242-14 (clade AG) (HIV)
[5] = molecular target: Env of HIV isolate 25710-2.43 (clade C) (HIV)
[6] = molecular target: Env of HIV isolate 25711-2.4 (clade C) (HIV)
[7] = molecular target: Env of HIV isolate 3365.v2.c20 (clade A) (HIV)
[8] = molecular target: Env of HIV isolate 3589.v1.c4 (clade AC) (HIV)
[9] = molecular target: Env of HIV isolate 3637.v5.c3 (clade C) (HIV)
[10] = molecular target: Env of HIV isolate 45_01dG5 (clade B) (HIV)
[11] = molecular target: Env of HIV isolate 6101.10 (clade B) (HIV)
[12] = molecular target: Env of HIV isolate 6535.3 (clade B) (HIV)
[13] = molecular target: Env of HIV isolate 6838.v1.c35 (clade C) (HIV)
[14] = molecular target: Env of HIV isolate A03349M1.vrc4a (clade D) (HIV)
[15] = molecular target: Env of HIV isolate BG1168.01 (clade B) (HIV)
[16] = molecular target: Env of HIV isolate BG505.W6M.C2 (clade A) (HIV)
[17] = molecular target: Env of HIV isolate BJOX025000.01.1 (clade AE) (HIV)
[18] = molecular target: Env of HIV isolate BR025.9 (clade C) (HIV)
[19] = molecular target: Env of HIV isolate BaL.26 (clade B) (HIV)
[20] = molecular target: Env of HIV isolate CAP45.G3 (clade C) (HIV)
[21] = molecular target: Env of HIV isolate CH038.12 (clade BC) (HIV)
[22] = molecular target: Env of HIV isolate CH119.10 (clade BC) (HIV)
[23] = molecular target: Env of HIV isolate CH181.12 (clade BC) (HIV)
[24] = molecular target: Env of HIV isolate CM244.ec1 (clade AE) (HIV)
[25] = molecular target: Env of HIV isolate CNE14 (clade B) (HIV)
[26] = molecular target: Env of HIV isolate CNE31 (clade C) (HIV)
[27] = molecular target: Env of HIV isolate CNE40 (clade BC) (HIV)
[28] = molecular target: Env of HIV isolate CNE53 (clade C in Table 7) (HIV)
[29] = molecular target: Env of HIV isolate CNE59 (clade AE) (HIV)
[30] = molecular target: Env of HIV isolate DJ263.8 (clade AG) (HIV)
[31] = molecular target: Env of HIV isolate KER2008.12 (clade A) (HIV)
[32] = molecular target: Env of HIV isolate QH0515.01 (clade B) (HIV)
[33] = molecular target: Env of HIV isolate QH0692.42 (clade B) (HIV)
[34] = molecular target: Env of HIV isolate T250-4 (clade AG) (HIV)
[35] = molecular target: Env of HIV isolate TH966.8 (clade AE) (HIV)
[36] = molecular target: Env of HIV isolate TZA125.17 (clade C) (HIV)
[37] = molecular target: Env of HIV isolate UG021.16 (clade D) (HIV)
[38] = molecular target: Env of HIV isolate ZA012.29 (clade C) (HIV)
[39] = molecular target: Env of HIV isolate ZM53.12 (clade C) (HIV)
[40] = molecular target: HIV Env of isolate 001428-2.42 (HIV)
[41] = molecular target: HIV Env of isolate 191821.E6.1 (HIV)
[42] = molecular target: HIV Env of isolate 231965.c01 (HIV)
[43] = molecular target: HIV Env of isolate 247-23 (HIV)
[44] = molecular target: HIV Env of isolate 3873.v1.c24 (HIV)
[45] = molecular target: HIV Env of isolate 426c (HIV)
[46] = molecular target: HIV Env of isolate DU422.01 (HIV)
[47] = molecular target: HIV Env of isolate MW965.26 (HIV)
[48] = molecular target: HIV Env of isolate SO18.18 (HIV)
[49] = molecular target: HIV Env of isolate ZM214.15 (HIV)
[50] = molecular target: HIV Env of isolate ZM53.12 (HIV)

B1: ePGT121.18 (ePGT121.18.H1 VH and ePGT121.17.L1 VL) (antibody, V domains shown)
VH: QMQLQESGPGLVKPGETLSLTCSVSGASISSSYWSWLRETPGKGLEWIGYTHHSGDTNYAPSLKSRVHLGLHPSKNQVSLSLTSVTAADTAVYYCARTLHGRRIYGVVAFNEYYTYFYWPTWGKGTQVTVSS
VL: SDISVAPGETVRITCGGESIGSRAVQWYQHRPGQAPRLIIYNNQDRPPGIPERFSGSPDIDFGTTATLTISNVEAGDEATYYCHIWDSRRPTNWELGPGTTLTVL
With B1 the IC50, pseudovirus neutralization [1] was 14.4 µg/mL, the IC50, pseudovirus neutralization [2] was 5.67 µg/mL and the IC50, pseudovirus neutralization [3] was 0.011 µg/mL. The IC50, pseudovirus neutralization [4] was 17.3 µg/mL, the IC50, pseudovirus neutralization [5] was 4 ng/mL and the IC50, pseudovirus neutralization [6] was 2 ng/mL. The IC50, pseudovirus neutralization [7] was 4 ng/mL, the IC50, pseudovirus neutralization [8] was 0.252 µg/mL and the IC50, pseudovirus neutralization [9] was > 50 µg/mL. The IC50, pseudovirus neutralization [10] was 1 ng/mL, the IC50, pseudovirus neutralization [11] was 1 ng/mL and the IC50, pseudovirus neutralization [12] was 1 ng/mL. The IC50, pseudovirus neutralization [13] was 0.386 µg/mL, the IC50, pseudovirus neutralization [14] was 2 ng/mL and the IC50, pseudovirus neutralization [15] was > 50 µg/mL. The IC50, pseudovirus neutralization [16] was 0.014 µg/mL, the IC50, pseudovirus neutralization [17] was > 50 µg/mL and the IC50, pseudovirus neutralization [18] was 1 ng/mL. The IC50, pseudovirus neutralization [19] was 2 ng/mL, the IC50, pseudovirus neutralization [20] was 1.74 µg/mL and the IC50, pseudovirus neutralization [21] was 0.8 ng/mL. It also gave an IC50, pseudovirus neutralization [22] of 4 ng/mL, an IC50, pseudovirus neutralization [23] of 1 ng/mL and an IC50, pseudovirus neutralization [24] of 0.46 µg/mL. The IC50, pseudovirus neutralization [25] was 1 ng/mL, the IC50, pseudovirus neutralization [26] was 0.015 µg/mL and the IC50, pseudovirus neutralization [27] was 0.015 µg/mL. The IC50, pseudovirus neutralization [28] was 3 ng/mL, the IC50, pseudovirus neutralization [29] was > 50 µg/mL and the IC50, pseudovirus neutralization [30] was 2 ng/mL. For the same binder, the IC50, pseudovirus neutralization [31] was 3 ng/mL, the IC50, pseudovirus neutralization [32] was 7 ng/mL and the IC50, pseudovirus neutralization [33] was 6 ng/mL. The IC50, pseudovirus neutralization [34] was 0.8 ng/mL, the IC50, pseudovirus neutralization [35] was > 50 µg/mL and the IC50, pseudovirus neutralization [36] was 0.028 µg/mL. The IC50, pseudovirus neutralization [37] was 6 ng/mL, the IC50, pseudovirus neutralization [38] was 2 ng/mL and the IC50, pseudovirus neutralization [39] was 3 ng/mL. For the same binder, the IC80, pseudovirus neutralization (M1) [40] was 3 ng/mL, the IC80, pseudovirus neutralization (M2) [40] was 4 ng/mL and the IC80, pseudovirus neutralization (M1) [41] was 0.095 µg/mL. For the same binder, the IC80, pseudovirus neutralization (M2) [41] was 0.105 µg/mL, the IC80, pseudovirus neutralization (M1) [42] was > 50 µg/mL and the IC80, pseudovirus neutralization (M2) [42] was > 50 µg/mL. The IC80, pseudovirus neutralization (M1) [43] was > 50 µg/mL, the IC80, pseudovirus neutralization (M2) [43] was > 50 µg/mL and the IC80, pseudovirus neutralization (M1) [44] was 6 ng/mL. It also gave an IC80, pseudovirus neutralization (M2) [44] of 0.011 µg/mL, an IC80, pseudovirus neutralization (M1) [45] of 0.302 µg/mL and an IC80, pseudovirus neutralization (M2) [45] of 0.337 µg/mL. The IC80, pseudovirus neutralization (M1) [46] was 0.013 µg/mL, the IC80, pseudovirus neutralization (M2) [46] was 0.013 µg/mL and the IC80, pseudovirus neutralization (M1) [47] was 6 ng/mL. The IC80, pseudovirus neutralization (M2) [47] was 4 ng/mL, the IC80, pseudovirus neutralization (M1) [48] was 5 ng/mL and the IC80, pseudovirus neutralization (M2) [48] was 7 ng/mL. It also gave an IC80, pseudovirus neutralization (M1) [49] of 0.053 µg/mL, an IC80, pseudovirus neutralization (M2) [49] of 0.067 µg/mL and an IC80, pseudovirus neutralization (M1) [50] of 0.02 µg/mL. The IC80, pseudovirus neutralization (M2) [50] was 0.032 µg/mL.
